Non-standard residues stand in square brackets, D forms with d. No end group written: not given here. Aib = CC(C)(N)C(=O)O
Target: T1, human GIP receptor (Homo sapiens, UniProt P48546)
T1 construct: expressed in transfected cells; host or cells: CHO (Chinese hamster ovary) cells
T1 sequence (P48546 22-466): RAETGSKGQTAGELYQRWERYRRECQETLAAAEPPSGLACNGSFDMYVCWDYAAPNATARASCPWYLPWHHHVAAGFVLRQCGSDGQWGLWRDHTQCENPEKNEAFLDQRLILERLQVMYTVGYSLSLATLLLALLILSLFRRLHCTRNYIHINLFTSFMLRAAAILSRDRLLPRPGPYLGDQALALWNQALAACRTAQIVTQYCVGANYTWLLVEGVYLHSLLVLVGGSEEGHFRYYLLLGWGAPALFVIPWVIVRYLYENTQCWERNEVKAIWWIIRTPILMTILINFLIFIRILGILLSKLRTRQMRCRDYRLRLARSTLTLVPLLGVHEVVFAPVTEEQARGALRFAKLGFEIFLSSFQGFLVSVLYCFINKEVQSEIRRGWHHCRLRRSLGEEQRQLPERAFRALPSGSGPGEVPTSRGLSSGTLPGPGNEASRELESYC
Test: In vitro activity of long-acting GIP conjugate: cAMP accumulation (LANCE cAMP kit) in CHO cells expressing human GIP receptor
Type: cell-based
Conditions: relative potency from cAMP EC50 vs human GIP, PEG-immunoglobulin Fc conjugates
Experimental: To measure the activity of the long-acting GIP conjugates prepared in Example 3, a method of measuring cell activity in vitro using a cell line transformed with the GIP receptor was used in the same manner as in Example 2.
In detail, to measure the activity of the long-acting GIP derivatives in the human GIP receptors, human GIP was serially diluted from 16 nM to 0.000015 nM by 4 folds, and the long-acting GIP derivatives prepared in Example 1 were each serially diluted from 50 nM to 0.000048 nM by 4 folds. The culture medium was removed from the cultured CHO cells where the human GIP receptors were expressed, 5 μl of each of the serially diluted materials was added to the cells, and then, 5 μl of buffer containing cAMP antibody was added thereto, followed by incubation at room temperature for 15 minutes. Next, the cells were lysed by adding 10 μl of detection mix containing cell lysis buffer, and then allowed for a reaction at room temperature for 90 minutes. The cell lysate obtained by the completion of the reaction was applied to the LANCE cAMP kit (PerkinElmer, USA) to calculate the EC50 value through the accumulated cAMP to be compared with each other.

| Molecule | In vitro activity of long-acting GIP derivative compared to human native GIP in human GIP receptor (%) |
| --- | --- |
| YAibEGT FISDYSIALEKQAQQDFVNWLLAGGPSSGAPPPSC (Y[Aib]EGTFISDYSIALEKQAQQDFVNWLLAGGPSSGAPPPSC) [SEQ ID NO: 17] | 153.2 |
| YAibEGT FISDYSIAMDAIAQQDFVNWLLAQKGKKNDWKHNITQC (Y[Aib]EGTFISDYSIAMDAIAQQDFVNWLLAQKGKKNDWKHNITQC) [SEQ ID NO: 11] | 84.8 |
| YAibEGT FISDY SIAibLD KQAAAib EFVNW LLAibGG PSSGA PPPSC (Y[Aib]EGTFISDYSI[Aib]LDKQAA[Aib]EFVNWLL[Aib]GGPSSGAPPPSC) [SEQ ID NO: 21] | 148.5 |
| YAibEGT FISDY SIAibLD KQAAAib EFVNW LLAibGH PSSGA PPPSC (Y[Aib]EGTFISDYSI[Aib]LDKQAA[Aib]EFVNWLL[Aib]GHPSSGAPPPSC) [SEQ ID NO: 24] | 123.3 |

Target: T2, human GIP receptor (human, UniProt P48546 22-466)
T2 sequence (looked up): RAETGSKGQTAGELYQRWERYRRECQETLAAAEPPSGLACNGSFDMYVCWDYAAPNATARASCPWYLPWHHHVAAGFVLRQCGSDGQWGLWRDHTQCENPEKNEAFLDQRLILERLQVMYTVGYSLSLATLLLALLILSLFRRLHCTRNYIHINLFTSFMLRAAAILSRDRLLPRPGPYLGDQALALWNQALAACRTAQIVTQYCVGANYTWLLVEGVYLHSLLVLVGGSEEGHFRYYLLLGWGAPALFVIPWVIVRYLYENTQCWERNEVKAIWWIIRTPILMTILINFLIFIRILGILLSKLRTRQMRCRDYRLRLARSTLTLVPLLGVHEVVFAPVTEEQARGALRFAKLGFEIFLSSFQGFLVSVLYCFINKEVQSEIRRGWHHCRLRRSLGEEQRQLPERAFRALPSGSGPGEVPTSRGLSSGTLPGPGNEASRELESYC
Test: cell-based or functional assay
Conditions: not given

| Molecule | In vitro activity of GIP derivative compared to human native GIP in human GIP receptor (%) (cAMP EC50, CHO cells expressing human GIP receptor) |
| --- | --- |
| Y[Aib]EGTFISDYSIYLDKQAA[Aib]EFVNWLLAGHPSSGAPPPSC (not fully specified) [GIP derivative of SEQ ID NO: 22] | 71.6 |
| Y[Aib]EGTFISDYSIYLDKQAA[Aib]EFVNWLL[Aib]GHPSSGAPPPSC (not fully specified) [GIP derivative of SEQ ID NO: 19] | 66.7 |
| Y[Aib]EGTFISDYSIAMDAIAQQDFVNWLLAGGPSSGAPPPSC (not fully specified) [GIP derivative of SEQ ID NO: 2] | 13.9 |
| Y[Aib]EGTFISDYSIYLDKQAA[Aib]EFVQWLI[Aib]GGPSSGAPPPSC (not fully specified) [GIP derivative of SEQ ID NO: 25] | 78.3 |
| Y[Aib]EGTFISDYSIYLDKQAAQEFVNWLLAQKPSSGAPPPSC (not fully specified) [GIP derivative of SEQ ID NO: 18] | 13.6 |
| Y[Aib]EGTFISDYSIYMDAIAQQDFVNWLLAGGPSSGAPPPSC (not fully specified) [GIP derivative of SEQ ID NO: 4] | 10.5 |
| Y[Aib]EGTFISDYSI[Aib]MDAIAQQDFVNWLLAGGPSSGAPPPSC (not fully specified) [GIP derivative of SEQ ID NO: 3] | 15.6 |
| Y[Aib]EGTFISDYSIAMDAIAQQDFVNWLLAQKGKKNDWKHNITQC (not fully specified) [GIP derivative of SEQ ID NO: 11] | 122 |
| Y[Aib]EGTFISDYSIYLDAQAA[Aib]DFVNWLLAGGPSSGAPPPSC (not fully specified) [GIP derivative of SEQ ID NO: 8] | 1.9 |
| Y[Aib]EGTFISDYSIYLDKQAA[Aib]EFVNWLLAQKC (not fully specified) [GIP derivative of SEQ ID NO: 13] | 31.1 |
| Y[Aib]EGTFISDYSIYLDKQAA[Aib]EFVQWLIAGHPSSGAPPPC (not fully specified) [GIP derivative of SEQ ID NO: 26] | 66.7 |
| Y[Aib]EGTFISDYSIYLDAQAA[Aib]EFVNWLLAQKC (not fully specified) [GIP derivative of SEQ ID NO: 14] | 17.4 |
| Y[Aib]EGTFISDYSIYLDAQAAKEFIAWLLAGGPSSGAPPPSC (not fully specified) [GIP derivative of SEQ ID NO: 10] | 13.9 |
| Y[Aib]EGTFISDYSI[Aib]LDKQAA[Aib]EFVNWLL[Aib]GHPSSGAPPPSC (not fully specified) [GIP derivative of SEQ ID NO: 24] | 183 |
| Y[Aib]EGTFISDYSIYLDKQAQKEFVNWLL[Aib]GGPSSGAPPPSC (not fully specified) [GIP derivative of SEQ ID NO: 23] | 87.6 |
| Y[Aib]EGTFISDYSI[Aib]LDKQAA[Aib]EFVNWLL[Aib]GGPSSGAPPPSC (not fully specified) [GIP derivative of SEQ ID NO: 21] | 123 |
| Y[Aib]EGTFISDYSIALEKQAQQDFVNWLLAGGPSSGAPPPSC (not fully specified) [GIP derivative of SEQ ID NO: 17] | 111 |
| Y[Aib]EGTFISDYSIYLDKQAA[Aib]EFVNWLL[Aib]GGPSSGAPPPSC (not fully specified) [GIP derivative of SEQ ID NO: 20] | 75.3 |
| Y[Aib]EGTFISDYSIQMDAIAQQDFVNWLLAGGPSSGAPPPSC (not fully specified) [GIP derivative of SEQ ID NO: 5] | 12.1 |
| Y[Aib]EGTFISDYSIYLDAIAQQDFVNWLLAGGPSSGAPPPSC (not fully specified) [GIP derivative of SEQ ID NO: 6] | 17.4 |
| Y[Aib]EGTFISDYSIYLDKQAA[Aib]EFVNWLLAQKGKKNDWKHNITQC (not fully specified) [GIP derivative of SEQ ID NO: 12] | 49.2 |
| Y[Aib]EGTFISDYSIYLDAQAAKDFVNWLLAGGPSSGAPPPSC (not fully specified) [GIP derivative of SEQ ID NO: 9] | 2 |
| Y[Aib]EGTFISDYSIAMDKIAQQDFVNWLLAQKPSSGAPPPSC (not fully specified) [GIP derivative of SEQ ID NO: 15] | 31.1 |
| Y[Aib]EGTFISDYSIAMDAIAQQDFVNWLLAQKPSSGAPPPSC (not fully specified) [GIP derivative of SEQ ID NO: 1] | 49.3 |
| Y[Aib]EGTFISDYSIAMDGIAQQDFVNWLLAQKPSSGAPPPSC (not fully specified) [GIP derivative of SEQ ID NO: 16] | 11.3 |
| Y[Aib]EGTFISDYSIYLDAQAQQDFVNWLLAGGPSSGAPPPSC (not fully specified) [GIP derivative of SEQ ID NO: 7] | 19.6 |

— patent publication US20230381279A1, “PHARMACEUTICAL COMPOSITION FOR PREVENTING OR TREATING LUPUS-RELATED DISEASES COMPRISING GIP DERIVATIVE OR LONG-ACTING CONJUGATE THEREOF” (HANMI PHARM. CO., LTD., priority 2020, published 2023)
